Changes are numbered by the printed parent chain. Names and notes keep the numbering of the source. Each block holds one binder with its values, some of them ahead of it.
Legend:
Human CD137 ECD = molecular target: T1, Human CD137 ECD (human); experiment: SPR, vs parent H183/L072
T1 construct: also called 4-1BB

[1] = molecular target: T2, CD3 epsilon homodimer protein (UniProt P07766 23-126); experiment: SPR, CD3 epsilon homodimer on chip, one-arm antibody as analyte;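 further: surface plasmon resonance at 25 °C with CD3 epsilon homodimer amine-coupled to a CM4 sensor chip, antibody injected as analyte, HBS-EP+ as running buffer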
T2 construct: also called CD3 (CD3 epsilon)
T2 sequence (P07766 23-126): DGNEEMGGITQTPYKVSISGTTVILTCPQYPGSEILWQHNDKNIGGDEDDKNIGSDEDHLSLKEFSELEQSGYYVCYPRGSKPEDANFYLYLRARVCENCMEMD

T1 sequence (chain, as listed by the source limits assumed): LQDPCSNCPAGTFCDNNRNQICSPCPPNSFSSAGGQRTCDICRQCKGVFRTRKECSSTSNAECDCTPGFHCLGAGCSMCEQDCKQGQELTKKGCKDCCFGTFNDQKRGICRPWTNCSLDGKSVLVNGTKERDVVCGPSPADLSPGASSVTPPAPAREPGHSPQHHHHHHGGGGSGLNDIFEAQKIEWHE

fold change of affinity (Human CD137 ECD): 0.6 fold
B1: dBBDu183H P61V / dBBDu072L (antibody, name in Kabat numbering, V domains shown)
VH: QVQLVESGGGLVQPGRSLRLSCAASGFTFSNAWMHWVRQAPGKGLEWVAQIKDKGNAYAAYYAVSVKGRFTISRDDSKNSIYLQMNSLKTEDTAVYYCHYVHYASASTVLPAFGVDAWGQGTTVTVSS
VL: DIVMTQSPLSLPVTPGEPASISCQASQELVHMNRNTYLHWYQQKPGQAPRLLIYKVSNRFPGVPDRFSGSGSGTDFTLKISRVEAEDVGVYYCAQGTSVPFTFGQGTKLEIK
notes: as m1, one VH change

fold change of affinity (Human CD137 ECD): 1 fold
B2: dBBDu183H A100fH / dBBDu072L (antibody, name in Kabat numbering, V domains shown)
VH: B1 VH with V64P, A112H
VL: B1 VL
notes: as m1, one VH change

fold change of affinity (Human CD137 ECD): 2.2 fold
B3: dBBDu183H D101E / dBBDu072L (antibody, name in Kabat numbering, V domains shown)
VH: B1 VH with V64P, D116E
VL: B1 VL
notes: as m1, one VH change

fold change of affinity (Human CD137 ECD): 0.6 fold
B4: dBBDu183H A100Q / dBBDu072L (antibody, name in Kabat numbering, V domains shown)
VH: B1 VH with V64P, A106Q
VL: B1 VL
notes: as m1, one VH change

fold change of affinity (Human CD137 ECD): 0.7 fold
B5: dBBDu183H A100fS / dBBDu072L (antibody, name in Kabat numbering, V domains shown)
VH: B1 VH with V64P, A112S
VL: B1 VL
notes: as m1, one VH change

fold change of affinity (Human CD137 ECD): 0.3 fold
B6: dBBDu183H A98S / dBBDu072L (antibody, name in Kabat numbering, V domains shown)
VH: B1 VH with V64P, A104S
VL: B1 VL
notes: as m1, one VH change

fold change of affinity (Human CD137 ECD): 0.5 fold
B7: dBBDu183H A100R / dBBDu072L (antibody, name in Kabat numbering, V domains shown)
VH: B1 VH with V64P, A106R
VL: B1 VL
notes: as m1, one VH change

fold change of affinity (Human CD137 ECD): 0.6 fold
B8: dBBDu183H A100fG / dBBDu072L (antibody, name in Kabat numbering, V domains shown)
VH: B1 VH with V64P, A112G
VL: B1 VL
notes: as m1, one VH change

fold change of affinity (Human CD137 ECD): 0.9 fold
B9: dBBDu183H A102S / dBBDu072L (antibody, name in Kabat numbering, V domains shown)
VH: B1 VH with V64P, A117S
VL: B1 VL
notes: as m1, one VH change

fold change of affinity (Human CD137 ECD): 1.1 fold
B10: dBBDu183H A100K / dBBDu072L (antibody, name in Kabat numbering, V domains shown)
VH: B1 VH with V64P, A106K
VL: B1 VL
notes: as m1, one VH change

fold change of affinity (Human CD137 ECD): 1.6 fold
B11: dBBDu183H A102G / dBBDu072L (antibody, name in Kabat numbering, V domains shown)
VH: B1 VH with V64P, A117G
VL: B1 VL
notes: as m1, one VH change

fold change of affinity (Human CD137 ECD): 0.3 fold
B12: dBBDu183H A98E / dBBDu072L (antibody, name in Kabat numbering, V domains shown)
VH: B1 VH with V64P, A104E
VL: B1 VL
notes: as m1, one VH change

fold change of affinity (Human CD137 ECD): 0.4 fold
B13: dBBDu183H A100N / dBBDu072L (antibody, name in Kabat numbering, V domains shown)
VH: B1 VH with V64P, A106N
VL: B1 VL
notes: as m1, one VH change

fold change of affinity (Human CD137 ECD): 0.5 fold
B14: dBBDu183H A100E / dBBDu072L (antibody, name in Kabat numbering, V domains shown)
VH: B1 VH with V64P, A106E
VL: B1 VL
notes: as m1, one VH change

fold change of affinity (Human CD137 ECD): 0.7 fold
B15: dBBDu183H A100G / dBBDu072L (antibody, name in Kabat numbering, V domains shown)
VH: B1 VH with V64P, A106G
VL: B1 VL
notes: as m1, one VH change

KD ratio (KD of CE115HA000/KD of altered form) [1]: 23200
B16: CE115HA000 Y97R (antibody, human IgG1, kappa, L234A L235A, N297A, name in Kabat numbering)
heavy: QVQLVESGGGVVQPGRSLRLSCAASGFTFSNAWMHWVRQAPGKGLEWVAQIKAKSNNYATYYAESVKGRFTISRDDSKNSLYLQMNSLKTEDTAVYYCRYVHRGAYYGVDAWGQGTTVTVSSASTKGPSVFPLAPSSKSTSGGTAALGCLVKDYFPEPVTVSWNSGALTSGVHTFPAVLQSSGLYSLSSVVTVPSSSLGTQTYICNVNHKPSNTKVDKKVEPKSCDKTHTCPPCPAPEAAGGPSVFLFPPKPKDTLMISRTPEVTCVVVDVSHEDPEVKFNWYVDGVEVHNAKTKPREEQYASTYRVVSVLTVLHQDWLNGKEYKCKVSNKALPAPIEKTISKAKGQPREPQVYTLPPSRCELTKNQVSLSCAVKGFYPSDIAVEWESNGQPENNYKTTPPVLDSDGSFFLVSKLTVDKSRWQQGNVFSCSVMHEALHNHYTQKSLSLSPDYKDDDDK
chain: EPKSSDKTHTCPPCPAPELLGGPSVFLFPPKPKDTLMISRTPEVTCVVVDVSHEDPEVKFNWYVDGVEVHNAKTKPREEQYNSTYRVVSVLTVLHQDWLNGKEYKCKVSNKALPAPIEKTISKAKGQPREPQVCTLPPSRDELTKNQVSLWCLVKGFYPSDIAVEWESNGQPENNYKTTPPVLDSDGSFFLYSKLTVDKSRWQQGNVFSCSVMHEALHNRYTQKSLSLSP
light: DIVMTQSPLSLPVTPGEPASISCRSSQSLVHSNRNTYLHWYQQKPGQAPRLLIYKVSNRFSGVPDRFSGSGSGTDFTLKISRVEAEDVGVYYCGQGTQVPYTFGQGTKLEIKRTVAAPSVFIFPPSDEQLKSGTASVVCLLNNFYPREAKVQWKVDNALQSGNSQESVTEQDSKDSTYSLSSTLTLSKADYEKHKVYACEVTHQGLSSPVTKSFNRGEC
notes: one-arm antibody

KD ratio (KD of CE115HA000/KD of altered form) [1]: 0.51
B17: CE115HA000 Y100aQ (antibody, human IgG1, kappa, L234A L235A, N297A, name in Kabat numbering)
heavy: B16 heavy with R103Y, Y107Q
chain: B16 chain
light: B16 light
notes: one-arm antibody

KD ratio (KD of CE115HA000/KD of altered form) [1]: 0.96
B18: CE115HA000 Y100W (antibody, human IgG1, kappa, L234A L235A, N297A, name in Kabat numbering)
heavy: B16 heavy with R103Y, Y106W
chain: B16 chain
light: B16 light
notes: one-arm antibody

KD ratio (KD of CE115HA000/KD of altered form) [1]: 0.79
B19: CE115HA000 Y100aK (antibody, human IgG1, kappa, L234A L235A, N297A, name in Kabat numbering)
heavy: B16 heavy with R103Y, Y107K
chain: B16 chain
light: B16 light
notes: one-arm antibody

KD ratio (KD of CE115HA000/KD of altered form) [1]: 1180
B20: CE115HA000 Y97S (antibody, human IgG1, kappa, L234A L235A, N297A, name in Kabat numbering)
heavy: B16 heavy with R103S
chain: B16 chain
light: B16 light
notes: one-arm antibody

KD ratio (KD of CE115HA000/KD of altered form) [1]: 0.66
B21: CE115HA000 Y100aA (antibody)
heavy: B16 heavy with R103Y, Y107A
Fc: B16 chain
light: B16 light
notes: one-arm antibody

KD ratio (KD of CE115HA000/KD of altered form) [1]: 0.98
B22: CE115HA000 Y100aF (antibody, human IgG1, kappa, L234A L235A, N297A, name in Kabat numbering)
heavy: B16 heavy with R103Y, Y107F
chain: B16 chain
light: B16 light
notes: one-arm antibody

KD ratio (KD of CE115HA000/KD of altered form) [1]: 1.2
B23: CE115HA000 Y100aD (antibody, human IgG1, kappa, L234A L235A, N297A, name in Kabat numbering)
heavy: B16 heavy with R103Y, Y107D
chain: B16 chain
light: B16 light
notes: one-arm antibody

KD ratio (KD of CE115HA000/KD of altered form) [1]: 0.63
B24: CE115HA000 Y100D (antibody, human IgG1, kappa, L234A L235A, N297A, name in Kabat numbering)
heavy: B16 heavy with R103Y, Y106D
chain: B16 chain
light: B16 light
notes: one-arm antibody

KD ratio (KD of CE115HA000/KD of altered form) [1]: 0.92
B25: CE115HA000 Y100A (antibody)
heavy: B16 heavy with R103Y, Y106A
Fc: B16 chain
light: B16 light
notes: one-arm antibody

KD ratio (KD of CE115HA000/KD of altered form) [1]: 0.77
B26: CE115HA000 Y100Q (antibody, human IgG1, kappa, L234A L235A, N297A, name in Kabat numbering)
heavy: B16 heavy with R103Y, Y106Q
chain: B16 chain
light: B16 light
notes: one-arm antibody

KD ratio (KD of CE115HA000/KD of altered form) [1]: 0.93
B27: CE115HA000 Y100K (antibody, human IgG1, kappa, L234A L235A, N297A, name in Kabat numbering)
heavy: B16 heavy with R103Y, Y106K
chain: B16 chain
light: B16 light
notes: one-arm antibody

KD ratio (KD of CE115HA000/KD of altered form) [1]: 0.67
B28: CE115HA000 Y100L (antibody, human IgG1, kappa, L234A L235A, N297A, name in Kabat numbering)
heavy: B16 heavy with R103Y, Y106L
chain: B16 chain
light: B16 light
notes: one-arm antibody

KD ratio (KD of CE115HA000/KD of altered form) [1]: 0.92
B29: CE115HA000 Y100V (antibody, human IgG1, kappa, L234A L235A, N297A, name in Kabat numbering)
heavy: B16 heavy with R103Y, Y106V
chain: B16 chain
light: B16 light
notes: one-arm antibody

KD ratio (KD of CE115HA000/KD of altered form) [1]: 0.97
B30: CE115HA000 Y100G (antibody, human IgG1, kappa, L234A L235A, N297A, name in Kabat numbering)
heavy: B16 heavy with R103Y, Y106G
chain: B16 chain
light: B16 light
notes: one-arm antibody

KD ratio (KD of CE115HA000/KD of altered form) [1]: 0.7
B31: CE115HA000 Y100S (antibody, human IgG1, kappa, L234A L235A, N297A, name in Kabat numbering)
heavy: B16 heavy with R103Y, Y106S
chain: B16 chain
light: B16 light
notes: one-arm antibody

KD ratio (KD of CE115HA000/KD of altered form) [1]: 0.59
B32: CE115HA000 Y100aS (antibody, human IgG1, kappa, L234A L235A, N297A, name in Kabat numbering)
heavy: B16 heavy with R103Y, Y107S
chain: B16 chain
light: B16 light
notes: one-arm antibody

KD ratio (KD of CE115HA000/KD of altered form) [1]: 1.01
B33: CE115HA000 Y100aG (antibody, human IgG1, kappa, L234A L235A, N297A, name in Kabat numbering)
heavy: B16 heavy with R103Y, Y107G
chain: B16 chain
light: B16 light
notes: one-arm antibody

KD ratio (KD of CE115HA000/KD of altered form) [1]: 1.3
B34: CE115HA000 Y100P (antibody, human IgG1, kappa, L234A L235A, N297A, name in Kabat numbering)
heavy: B16 heavy with R103Y, Y106P
chain: B16 chain
light: B16 light
notes: one-arm antibody

KD ratio (KD of CE115HA000/KD of altered form) [1]: 0.57
B35: CE115HA000 Y100aL (antibody, human IgG1, kappa, L234A L235A, N297A, name in Kabat numbering)
heavy: B16 heavy with R103Y, Y107L
chain: B16 chain
light: B16 light
notes: one-arm antibody

From patent US20210388087A1 (Chugai, published 2021)
